Measured values as given in the supplement of paper PMC9170038.

Test system: MS2 coat protein
Experiment: apparent KD of MS2 coat protein; designed switch direction (-1 OFF switch, 1 ON switch): -1; higher = weaker reporter binding
Outline: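 RNA switches sharing common flanks were transcribed by stalled E. coli RNA polymerase on Illumina chips. A doubling series of SNAP-549-labelled MS2 coat protein, from 0.7 or 1.5 nM to 3 µM, was applied in Tris-HCl pH 7.5 buffer with KCl, MgCl2, BSA, DTT, tRNA and Tween-20. Each step lasted 0.8–1.5 h at the bottom of the series and 10–20 min at the top. Normalised cluster fluorescence was curve-fitted, giving apparent KD as the per-design median over clusters.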

[1] = input ligand: microRNA oligo, concentration not stated
[2] = Eterna round: R95, input ligand: FMN 200 uM
[3] = Eterna round: R95, input ligand: microRNA oligo, concentration not stated
[4] = Eterna round: R95, input ligand: none

Sequence	apparent KD of MS2 coat protein (input ligand: FMN 200 uM) [µM]	apparent KD of MS2 coat protein [1] [µM]	apparent KD of MS2 coat protein (input ligand: none) [µM]	apparent KD of MS2 coat protein [2] [µM]	apparent KD of MS2 coat protein [3] [µM]	apparent KD of MS2 coat protein [4] [µM]
AAGAAGAUCAAAGGAUAUGGAGCUGAAACGGCGCUAGAAGGUUGUCUAGUGUAACAUGAGGAUCACCCAUGUAGGUACCUCUAA [AK ExNG1-V2-1.1] (Eterna round: R96, puzzle: Exclusion NG 1)	0.73	0.376	0.847	–	–	–
AAGAAGCUGAGAGGAUAUGGAGCCGAAACGGAGCUAGAAGGCUUUGCAGAAAGACAUGAGGAUCACCCAUGUUCAUGUAGAGAA [AK ExNG1-1.3] (Eterna round: R96, puzzle: Exclusion NG 1)	0.0152	0.0126	0.0184	–	–	–
AAGAAGUGAGGAUAUCACCCUGCGCUACAGUUGCGCAGGCAUGAGAAGGCACUUGAGGAUCACCCAAGUCCUAU [Bitiri] (Eterna round: R97, puzzle: Exclusion 4)	0.212	–	0.0236	–	–	–
AAGAAGUGAGGAUAUGCAAAGAAAGAAAGAAAGAAAGAAAAGCAGAAGGCACAUGAGGAUCACCCAUGUAAAGA [Fourth Time] (puzzle: Exclusion 4)	–	–	–	0.0205	0.0165	0.0156
AAGAAUUACAUGAGGAUCACCCAUGUAGAGUGGGAAGAGAGAUAGGAUAUGAUGUGAGAAUCAUAUCAGAAGGAUCGAGACUCA [AK ExNG3-2] (Eterna round: R96, puzzle: Exclusion NG 3)	0.144	0.105	0.138	–	–	–
AAGACACAUGAGGAUCACCCAUGUGAGGAUAUUCGAUGCUGAGCGUAAGCUUAGUAUCGGAGAAGGUACAUAGG [Salishxclusion 9 - Jieux - Exclusion 1] (Eterna round: R97, puzzle: Exclusion 1)	0.0772	–	0.0666	–	–	–
AAGACACUUAGAGGAUAUGUGAAAGGAAGUGUAACAGAAGGCUAGGUGAGAACAUGAGGAUCACCCAUGUGAUCACAUGCCAAA [PowerStrip EXNG 1.27] (Eterna round: R96, puzzle: Exclusion NG 1)	0.02	0.0119	0.0121	–	–	–
AAGAGCAGACGGAGAUCCAACAUGAGGAUCACCCAUGUCUCGCAAGCUUUUUGCUUGUCUUAUCCUCCUCUGUUCAC [Esquitian 4] (Eterna round: R97, puzzle: Sensor, turn-off variant 1)	0.0148	–	0.0146	–	–	–
AAGAGGUCAGGAUAUACGGAAAGAGAGAGAAGGUGAGGGUAACAUGAGGAUCACCCAUGUAGAAGGGACUAAGA [JR_Exclu2_Sub074] (puzzle: Exclusion 2)	–	–	–	0.0545	0.0448	0.0385
AAGAGUGCAGGAUAUACUUGGUAGGGUAAGAUGAGUGAGGGACAUGAGGAUCACCCAUGUAGAAGGGCAGAGAG [JR_Exclu2_Sub057] (puzzle: Exclusion 2)	–	–	–	0.0331	0.0351	0.0267
AAGAGUGCAGGAUAUACUUGUUAGGACGGUUGGAUGAUUUGACAUGAGGAUCACCCAUGUAGAAGGGCAGAGAG [JR_Exclu2_Sub052] (puzzle: Exclusion 2)	–	–	–	–	0.126	–
AAGAGUGCAGGAUAUACUUGUUAGGACGGUUGGAUGGUUUGACAUGAGGAUCACCCAUGUAGAAGGGCAGAGAG [JR_Exclu2_Sub053] (puzzle: Exclusion 2)	–	–	–	–	0.0705	–
AAGAUGCGGAUAGGAUAUGGAAAAAAAAAAAGACCAGAAGGAUUGGUCAUAUAACAUGAGGAUCACCCAUGUAUAUGUUGUGAA [AK ExNG1-3] (Eterna round: R96, puzzle: Exclusion NG 1)	0.0178	0.0213	0.0193	–	–	–
AAGAUGCGGAUAGGAUAUGGAAAAAAAAAAGGAUUAGAAGGGUUGGUUAAAAUACAUGAGGAUCACCCAUGUGAAUCAUGAGAA [AK ExNG1-2.2] (Eterna round: R96, puzzle: Exclusion NG 1)	0.392	0.188	0.186	–	–	–
AAGAUGCGGAUAGGAUAUGGAAAGAAAAGAAAAUUAGAAGGGUUGGUUAAAAUACAUGAGGAUCACCCAUGUGAAUCAUGAGAA [AK ExNG1-2] (Eterna round: R96, puzzle: Exclusion NG 1)	0.132	0.0898	0.0999	–	–	–
AAGAUGCGGGUAGGAUAUGGAGAGAAAGAAAGACCAGAAGGAUUGGUCAUAUAACAUGAGGAUCACCCAUGUAUAUGUUGCGAA [EX ng 1 5] (Eterna round: R96, puzzle: Exclusion NG 1)	0.0196	0.0162	0.021	–	–	–
AAGCACAGAGGAUAUACAAUCCUCAGUGGGUCUGGCGAGCCACAUGAGGAUCACCCAUGUAGAAGGCUGGGCUC [Xezaoron] (puzzle: Exclusion 2)	–	–	–	–	0.011	–

Sequence	apparent KD of MS2 coat protein (input ligand: FMN 200 uM) [µM]	apparent KD of MS2 coat protein [1] [µM]	apparent KD of MS2 coat protein (input ligand: none) [µM]	apparent KD of MS2 coat protein [2] [µM]	apparent KD of MS2 coat protein [3] [µM]	apparent KD of MS2 coat protein [4] [µM]
AAGCAGCGAGGAUAUGCUUGCGCGUGUUCUAGUUGAAAUAAACUUGAGGAUCACCCAAGUAGAAGGCGCAACCG [EX2 #44] (Eterna round: R97, puzzle: Exclusion 2)	0.437	–	0.0656	–	–	–
AAGCCCUGAGGAUAUCCCAACUCGCACAUGAGGAUCACCCAUGUCCUUCUCUGGGUUUCGGGAGAAGGCAGGCCUC [Megrez-8.3] (Eterna round: R97, puzzle: Exclusion 5)	0.398	–	0.911	–	–	–
AAGCGCGUAGGAUAUACAUGAGGAUCACCCAUGUGAGGAAGGAGUUGGAAGUGUGGAAGUAGAAGGACGGAGUG [JR_Exclu3_Sub078] (puzzle: Exclusion 3)	–	–	–	0.0354	0.0443	0.0417
AAGCUGAAGUGCCCGUCUUACAUGAGGAUCACCCAUGUUUUGCUGAAGCGAAUACUCGCAUUAGCAAGUGAGGUCCA [Eternabot (Original) Solution 9] (Eterna round: R97, puzzle: Sensor, turn-off variant 1)	0.0682	–	0.0539	–	–	–
AAGCUGGUAGGAUAUCGUACACGUAACAUGAGGAUCACCCAUGUGCGCUAUGUUGGAACUCGAGAAGGGCCCAUUC [Eternabot (L2) Solution 3] (Eterna round: R97, puzzle: Exclusion 5)	0.0193	–	0.0185	–	–	–
AAGCUGUGAGGAUAUACAUGAGGAUCACCCAUGUUAAGGAAGUCUUGGUUAAUUUGGUGUAGAAGGCGCUUAUU [JR_Ex3_Sub018] (Eterna round: R97, puzzle: Exclusion 3)	0.0326	–	0.0324	–	–	–
AAGGAAAAGUGAGGAUAUGGAAAUUUGGUGAUAACAUGAGGAUCACCCAUGUGAAAACAAUAAAAUUAGAAGGUAUAAAGAAAA [AK ExNG2-1.1] (Eterna round: R96, puzzle: Exclusion NG 2)	0.12	0.0667	0.107	–	–	–
AAGGAACAUGAGGAUCACCCAUGUAAGGAUAUGCAAAGAGAGAAAGAAGAAGGAGAAAGCAGAAGGUACAAGGA [JR_Exclu1_Sub072] (puzzle: Exclusion 1)	–	–	–	0.0473	0.0362	0.0658
AAGGACAGAGGAUAUACAUAGAUACAGAUUCAUGUAGAACUACAUGAGGAUCACCCAUGUAGAAGGCUGUCCUA [Fiskers Ex 2 - 2] (Eterna round: R96, puzzle: Exclusion 2)	0.412	0.0253	0.0317	–	–	–
AAGGACAGAGGAUAUACAUAGAUACAGAUUCAUGUAGAACUACAUGAGGAUCACCCAUGUAGAAGGCUGUCCUA [Fiskers Ex 2 - 2] (puzzle: Exclusion 2)	–	–	–	–	0.0294	–
AAGGGUAAAGGAUAUACAUGAGGAUCACCCAUGUUGAGGAAGGUUAGAUGAGGAGUAAGUAGAAGGUUAGACGA [JR_Exclu3_Sub089] (puzzle: Exclusion 3)	–	–	–	0.0571	0.0526	0.0696
AAGGGUAGGCAGGAUAUCCAGGUCGACACCGCGGGAGAAGGGCUUACAUGAGGAUCACCCAUGUAGGGUGCGAG [EX6 A.2] (Eterna round: R97, puzzle: Exclusion 6)	0.253	–	0.133	–	–	–
AAGGGUGCUUUCAGAACGACAUGAGGAUCACCCAUGUAGACUGAGGAUAUCUACUUCUAAGGACGGGAGAAGGUAGUGUAAUGC [Ex NG3 #67] (Eterna round: R96, puzzle: Exclusion NG 3)	0.0197	0.0159	0.0215	–	–	–
AAGGGUGCUUUCGGAACGACAUGAGGAUCACCCAUGUAGACUGAGGAUAUCUACUUCUAAGGACGGGAGAAGGCAGUGUAAUGC [Ex NG3 #69] (Eterna round: R96, puzzle: Exclusion NG 3)	0.0478	0.0283	0.0426	–	–	–
AAGGUCAAGAAUGGAAAUUAAAUACAUGAGGAUCACCCAUGUCAGGAUAUCCAGUAGAGACCUAGGGAGAAGGGACAUGAAAAG [Esonanza] (Eterna round: R96, puzzle: Exclusion NG 3)	0.0161	0.0103	0.0147	–	–	–
AAGGUGUUAGGAUAUCGGAGUUUGAGGCAGACGGGAAUUUUCGAGAAGGAACAUGAGGAUCACCCAUGUAGUAU [JR_Exclu4_Sub039] (puzzle: Exclusion 4)	–	–	–	–	0.0216	–
AAGUACCGUCACGAAAGUGAUGGUACAACAAGCAAAUGUACAUGAGGAUCACCCAUGUCCUCGAUUGCUCGUCUUAU [Sensor 3 - 61] (puzzle: Sensor v3, turn-off variant 2)	–	–	–	0.0772	0.114	0.0936
